Data: publication PMC7949122 (The Journal of Biological Chemistry, 2021)
Entries after “also recorded” stand apart in the source; their conditions may differ. Non-standard residues stand in square brackets, D forms with d. No end group written: not given here. Hyp = O=C(O)[C@@H]1C[C@@H](O)CN1; 2Thi = N[C@@H](Cc1cccs1)C(=O)O; NChg = not defined here

T1: human B2R on transfected HEK293A cells (human, UniProt P30411 1-391)
T1 chain: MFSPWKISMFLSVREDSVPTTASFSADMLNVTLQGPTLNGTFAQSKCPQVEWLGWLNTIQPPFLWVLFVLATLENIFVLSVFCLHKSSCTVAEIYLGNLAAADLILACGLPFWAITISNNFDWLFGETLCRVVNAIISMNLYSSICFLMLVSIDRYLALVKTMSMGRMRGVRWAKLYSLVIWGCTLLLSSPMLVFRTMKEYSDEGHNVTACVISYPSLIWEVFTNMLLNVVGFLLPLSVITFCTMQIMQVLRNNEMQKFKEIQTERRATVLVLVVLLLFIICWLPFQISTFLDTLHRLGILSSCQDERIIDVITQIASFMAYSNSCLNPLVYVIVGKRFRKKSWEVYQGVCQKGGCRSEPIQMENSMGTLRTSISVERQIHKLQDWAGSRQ


How the values were obtained:
[1] = test system: endogenous B1R in HeLa cells (ERK1/2 phosphorylation); assay: ERK1/2 phosphorylation (western blot) after B1R stimulation, AltB2RFlag versus Mock stable HeLa cells; assay type: cell-based, human; conditions: 1 μM NG29, n = 3
B1R = test system: B1R; set-up: method as in PMID 15734727; conditions: cited from earlier work
[2] = target: T1, human B2R on transfected HEK293A cells; assay: B2R; displacement of [3H]-BK
[3] = target: T1, human B2R on transfected HEK293A cells; assay: B2R(Ø); displacement of [3H]-BK

| Molecule | phosphorylated ERK1/2 after B1R stimulation, AltB2RFlag versus mock HeLa cells [1] | kinin receptor selectivity (B1R) | IC50 [2] [nM] | IC50 [3] [nM] |
| --- | --- | --- | --- | --- |
| SarLys[Dphe^8]desArg^9-BK [NG29] | not significant; also recorded: did not observe any difference in the increased levels of phosphorylated ERK1/2 between mock and AltB2R^Flag cells |  |  |  |
| desArg^9-BK: carboxy-terminally truncated peptide metabolite (RPPGFSPF; Bradykinin; UniProt P01042 381-388, looked up, fragment) |  | selectively bind to the other type of kinin receptor, the inducible B1R |  |  |
| desArg^10-KD: carboxy-terminally truncated peptide metabolite (KRPPGFSPF; Lysyl-bradykinin; UniProt P01042 380-388, looked up, fragment) |  | selectively bind to the other type of kinin receptor, the inducible B1R |  |  |
| RP[Hyp]G[2Thi]S[NChg][2Thi]R (reading uncertain; also: printed as [Hyp^3,Thi^5,^NChg^7,Thi^8]-BK) [NG291 ([Hyp^3,Thi^5,^NChg^7,Thi^8]-BK)] |  |  | 6.21 | 4.38 |
| RP[Hyp]G[2Thi]SP[Tyr(4-Me)]R (also: ΨCH2NH reduced bond between residues 8 and 9) [RMP-7 ([Hyp^3,Thi^5,(4-Me)Tyr^8(ΨCH2NH)Arg^9]-BK)] |  |  | 17.7 | 18 |
